{"source": "patent US20230330251A1", "about": "“METHODS FOR TREATING CANCERS WITH ANTIBODY DRUG CONJUGATES (ADC) THAT BIND TO 191P4D12 PROTEINS” (AGENSYS, INC., priority 2020, published 2023)", "system": "subjects with previously treated locally advanced or metastatic urothelial cancer", "test": "EV-301: safety, adverse events (safety analysis set, NCI-CTCAE v4.03, MedDRA)", "key": {"[1]": {"conditions": "Grade Any, N = 296 EV, 291 chemotherapy"}, "[2]": {"conditions": "Grade ≥3, N = 296 EV, 291 chemotherapy"}, "[3]": {"conditions": "MedDRA v23.0, N = 296 EV, 291 chemotherapy"}, "[4]": {"conditions": "No baseline PN, n = 241 EV, 233 chemotherapy"}, "[5]": {"conditions": "PY = 132.3 EV, 96.1 chemotherapy"}, "[6]": {"conditions": "any event, N = 296 EV, 291 chemotherapy"}}, "source_text": "The Safety Analysis Set (SAF) will be used for the safety analysis. All subjects who are randomized and received study drug will be included in the SAF. The frequency of AEs and the serious AEs will be summarized by MedDRA system organ class and preferred term. In addition, summary statistics will be provided for the following safety parameters: • Laboratory values • Vital sign measurements • ECOG PS\nAn AE is any untoward medical occurrence in a subject, temporally associated with the use of a medicinal product, whether or not considered related to the medicinal product. An AE can therefore be any unfavorable and unintended sign (including an abnormal laboratory finding), symptom, or disease (new or exacerbated) temporally associated with the use of a medicinal product.\nAEs, including abnormal clinical laboratory values, will be graded using the NCI-CTCAE guidelines (Version 4.03).\nThe safety analysis set (SAF), which consists of all subjects who received any amount of study drug, will be used for safety analyses.\nSAF was used to perform all safety analysis. All treated subjects were analyzed according to the treatment they received.\nThe number and percentage of AEs by severity were also summarized. All AEs were listed.\nA study drug-related TEAE is defined as any TEAE with a causal relationship of YES by the investigator. AEs of interest as classified by customized MedDRA queries and/or standard MedDRA queries were also summarized.", "data": [{"substance": "enfortumab vedotin", "values": [{"measurement": "TRAE of special interest: Infusion-related reactions, %", "setting": "[1]", "value": 8.8, "unit": "%"}, {"measurement": "TRAE of special interest: Infusion-related reactions, Local events, %", "setting": "[1]", "value": 1.0, "unit": "%"}, {"measurement": "TRAE of special interest: Infusion-related reactions, Systemic events, %", "setting": "[1]", "value": 7.8, "unit": "%"}, {"measurement": "TRAE of special interest: Ocular disorders, %", "setting": "[1]", "value": 18.6, "unit": "%"}, {"measurement": "TRAE of special interest: Peripheral neuropathy, %", "setting": "[1]", "value": 46.3, "unit": "%"}, {"measurement": "TRAE of special interest: Peripheral neuropathy, Motor events, %", "setting": "[1]", "value": 7.4, "unit": "%"}, {"measurement": "TRAE of special interest: Peripheral neuropathy, Sensory events, %", "setting": "[1]", "value": 43.9, "unit": "%"}, {"measurement": "TRAE of special interest: Rash, %", "setting": "[1]", "value": 43.9, "unit": "%"}, {"measurement": "TRAE of special interest: Severe cutaneous adverse reaction, %", "setting": "[1]", "value": 20.3, "unit": "%"}, {"measurement": "TRAE of special interest: Skin reactions, %", "setting": "[1]", "value": 47.0, "unit": "%"}, {"measurement": "TRAE: Alopecia, Number of patients", "setting": "[2]", "value": 0}, {"measurement": "TRAE: Anemia, Number of patients", "setting": "[2]", "value": 8}, {"measurement": "TRAE: Anemia, percent", "setting": "[2]", "value": "(2.7) percent"}, {"measurement": "TRAE: Any adverse event, Number of patients", "setting": "[2]", "value": 152}, {"measurement": "TRAE: Any adverse event, percent", "setting": "[2]", "value": "(51.4) percent"}, {"measurement": "TRAE: Decreased appetite, Number of patients", "setting": "[2]", "value": 9}, {"measurement": "TRAE: Decreased appetite, percent", "setting": "[2]", "value": "(3.0) percent"}, {"measurement": "TRAE: Decreased neutrophil count, Number of patients", "setting": "[2]", "value": 18}, {"measurement": "TRAE: Decreased neutrophil count, percent", "setting": "[2]", "value": "(6.1) percent"}, {"measurement": "TRAE: Decreased white-cell count, Number of patients", "setting": "[2]", "value": 4}, {"measurement": "TRAE: Decreased white-cell count, percent", "setting": "[2]", "value": "(1.4) percent"}, {"measurement": "TRAE: Diarrhea, Number of patients", "setting": "[2]", "value": 10}, {"measurement": "TRAE: Diarrhea, percent", "setting": "[2]", "value": "(3.4) percent"}, {"measurement": "TRAE: Dysgeusia, Number of patients", "setting": "[2]", "value": 0}, {"measurement": "TRAE: Fatigue, Number of patients", "setting": "[2]", "value": 19}, {"measurement": "TRAE: Fatigue, percent", "setting": "[2]", "value": "(6.4) percent"}, {"measurement": "TRAE: Febrile neutropenia, Number of patients", "setting": "[2]", "value": 2}, {"measurement": "TRAE: Febrile neutropenia, percent", "setting": "[2]", "value": "(0.7) percent"}, {"measurement": "TRAE: Maculopapular rash, Number of patients", "setting": "[2]", "value": 22}, {"measurement": "TRAE: Maculopapular rash, percent", "setting": "[2]", "value": "(7.4) percent"}, {"measurement": "TRAE: Nausea, Number of patients", "setting": "[2]", "value": 3}, {"measurement": "TRAE: Nausea, percent", "setting": "[2]", "value": "(1.0) percent"}, {"measurement": "TRAE: Neutropenia, Number of patients", "setting": "[2]", "value": 14}, {"measurement": "TRAE: Neutropenia, percent", "setting": "[2]", "value": "(4.7) percent"}, {"measurement": "TRAE: Peripheral sensory neuropathy, Number of patients", "setting": "[2]", "value": 9}, {"measurement": "TRAE: Peripheral sensory neuropathy, percent", "setting": "[2]", "value": "(3.0) percent"}, {"measurement": "TRAE: Pruritus, Number of patients", "setting": "[2]", "value": 4}, {"measurement": "TRAE: Pruritus, percent", "setting": "[2]", "value": "(1.4) percent"}, {"measurement": "TEAE with special safety interest: Any corneal disorders (SMQ), %", "setting": "[3]", "value": "(1.0%)"}, {"measurement": "TEAE with special safety interest: Any hyperglycemia (SSQ/CMQ), %", "setting": "[3]", "value": "(11.8%)"}, {"measurement": "TEAE with special safety interest: Any infusion related reactions (SSQ/CMQ), %", "setting": "[3]", "value": "(9.1%)"}, {"measurement": "TEAE with special safety interest: Any peripheral neuropathy (SMQ), %", "setting": "[3]", "value": "(50.3%)"}, {"measurement": "TEAE with special safety interest: Any rashes or severe cutaneous adverse reactions, %", "setting": "[3]", "value": "(53.7%)"}, {"measurement": "Treatment-emergent Hyperglycemia, %", "setting": "[4]", "value": "(5.8) %"}, {"measurement": "Treatment-emergent Peripheral motor neuropathy, %", "setting": "[4]", "value": "(9.1) %"}, {"measurement": "Treatment-emergent Peripheral neuropathy, %", "setting": "[4]", "value": "(50.6) %"}, {"measurement": "Treatment-emergent Peripheral sensory neuropathy, %", "setting": "[4]", "value": "(48.5) %"}, {"measurement": "most frequent Grade 3 or greater adverse event(s): rash, hyperglycemia, decreased neutrophil count, fatigue, anemia and decreased appetite, share of patients", "setting": "PADCEV arm", "value": "more than 5%"}, {"measurement": "Grade ≥3 severity TEAE, E (number of events)", "setting": "[5]", "value": 617}, {"measurement": "Grade ≥3 severity TEAE, E/PY", "setting": "[5]", "value": "(4.7) E/PY"}, {"measurement": "Grade ≥3 severity TRAE, E (number of events)", "setting": "[5]", "value": 320}, {"measurement": "Grade ≥3 severity TRAE, E/PY", "setting": "[5]", "value": "(2.4) E/PY"}, {"measurement": "Overall TEAE, E (number of events)", "setting": "[5]", "value": 5051}, {"measurement": "Overall TRAE, E (number of events)", "setting": "[5]", "value": 3033}, {"measurement": "Serious TEAE, E (number of events)", "setting": "[5]", "value": 314}, {"measurement": "Serious TRAE, E (number of events)", "setting": "[5]", "value": 114}, {"measurement": "TEAE Leading to death, E (number of events)", "setting": "[5]", "value": 21}, {"measurement": "TEAE Leading to death, E/PY", "setting": "[5]", "value": "(0.2) E/PY"}, {"measurement": "TEAE Leading to death, excluding disease progression, E (number of events)", "setting": "[5]", "value": 11}, {"measurement": "TEAE Leading to death, excluding disease progression, E/PY", "setting": "[5]", "value": "(0.1) E/PY"}, {"measurement": "TEAE Leading to dose interruption, E (number of events)", "setting": "[5]", "value": 536}, {"measurement": "TEAE Leading to dose interruption, E/PY", "setting": "[5]", "value": "(4.1) E/PY"}, {"measurement": "TEAE Leading to dose reduction, E (number of events)", "setting": "[5]", "value": 170}, {"measurement": "TEAE Leading to dose reduction, E/PY", "setting": "[5]", "value": "(1.3) E/PY"}, {"measurement": "TEAE Leading to treatment withdrawal, E (number of events)", "setting": "[5]", "value": 66}, {"measurement": "TEAE Leading to treatment withdrawal, E/PY", "setting": "[5]", "value": "(0.5) E/PY"}, {"measurement": "TRAE Leading to death, E (number of events)", "setting": "[5]", "value": 7}, {"measurement": "TRAE Leading to death, E/PY", "setting": "[5]", "value": "(0.1) E/PY"}, {"measurement": "TRAE Leading to death, excluding disease progression, E (number of events)", "setting": "[5]", "value": 7}, {"measurement": "TRAE Leading to death, excluding disease progression, E/PY", "setting": "[5]", "value": "(0.1) E/PY"}, {"measurement": "TRAE Leading to dose interruption, E (number of events)", "setting": "[5]", "value": 384}, {"measurement": "TRAE Leading to dose interruption, E/PY", "setting": "[5]", "value": "(2.9) E/PY"}, {"measurement": "TRAE Leading to dose reduction, E (number of events)", "setting": "[5]", "value": 165}, {"measurement": "TRAE Leading to dose reduction, E/PY", "setting": "[5]", "value": "(1.2) E/PY"}, {"measurement": "TRAE Leading to treatment withdrawal, E (number of events)", "setting": "[5]", "value": 51}, {"measurement": "TRAE Leading to treatment withdrawal, E/PY", "setting": "[5]", "value": "(0.4) E/PY"}, {"measurement": "TRAE Leading to dose interruption, %", "setting": "[6]", "value": "(51.0) %"}, {"measurement": "TRAE Leading to dose reduction, %", "setting": "[6]", "value": "(32.4) %"}, {"measurement": "TRAE Leading to dose withdrawal, %", "setting": "[6]", "value": "(13.5) %"}, {"measurement": "Adverse events, regardless of relationship to treatment, that resulted in death (excluding disease progression) during the treatment period", "setting": "in vivo", "value": 11, "unit": "patients"}, {"measurement": "Investigator-assessed treatment-related adverse events that resulted in death", "setting": "in vivo", "value": 7, "unit": "patients"}, {"measurement": "Investigator-assessed treatment-related adverse events that resulted in death, %", "setting": "in vivo", "value": 2.4, "unit": "%"}, {"measurement": "Skin reactions and peripheral neuropathy among treatment-related adverse events of special interest", "setting": "in vivo", "value": "most frequent"}, {"measurement": "Treatment-related adverse events of grade 3 or higher, rate after adjustment for treatment exposure", "setting": "in vivo", "value": 2.4, "unit": "events per patient-year"}, {"measurement": "time to first onset of grade ≥2 peripheral neuropathy, median (range)", "setting": "in vivo", "value": "4.435 (0.36, 12.02) months"}, {"measurement": "treatment-related death: abnormal hepatic function", "setting": "in vivo", "value": 1, "unit": "patient"}, {"measurement": "treatment-related death: hyperglycemia", "setting": "in vivo", "value": 1, "unit": "patient"}, {"measurement": "treatment-related death: multiorgan dysfunction syndrome", "setting": "in vivo", "value": 2, "unit": "patients"}, {"measurement": "treatment-related death: pelvic abscess", "setting": "in vivo", "value": 1, "unit": "patient"}, {"measurement": "treatment-related death: pneumonia", "setting": "in vivo", "value": 1, "unit": "patient"}, {"measurement": "treatment-related death: septic shock", "setting": "in vivo", "value": 1, "unit": "patient"}, {"measurement": "Time to Onset of TRAE of special interest: Blurred vision, Median (range)", "setting": "patients with the event", "value": 2.448, "unit": "months"}, {"measurement": "Time to Onset of TRAE of special interest: Corneal disorders, Median (range)", "setting": "patients with the event", "value": 4.337, "unit": "months"}, {"measurement": "Time to Onset of TRAE of special interest: Dry eye, Median (range)", "setting": "patients with the event", "value": 1.906, "unit": "months"}, {"measurement": "Time to Onset of TRAE of special interest: Hyperglycemia, Median (range)", "setting": "patients with the event", "value": 0.559, "unit": "months"}, {"measurement": "Time to Onset of TRAE of special interest: Infusion-related reactions, Median (range)", "setting": "patients with the event", "value": 0.509, "unit": "months"}, {"measurement": "Time to Onset of TRAE of special interest: Peripheral neuropathy, Median (range)", "setting": "patients with the event", "value": 2.694, "unit": "months"}, {"measurement": "Time to Onset of TRAE of special interest: Skin reactions, Median (range)", "setting": "patients with the event", "value": 0.427, "unit": "months"}, {"measurement": "incidence of treatment-related adverse events", "setting": "safety population", "value": 93.9, "unit": "%"}]}]}
